Read-outs that look alike come from different tables or passages of the source.
Columns and labels:
[1] = molecular target: KD^pY1, mono-phosphorylated FGFR2 kinase domain (UniProt P21802); test: MST
JM-KD^pY1 [2] = molecular target: JM-KD^pY1 (UniProt P21802); test: SPR
[3] = molecular target: CT^C1, untagged C-terminal tail of FGFR2 (the last 58 residues) (UniProt P21802); test: SPR
JM-KD^pY1 [4] = molecular target: JM-KD^pY1 (UniProt P21802); test: MST
[5] = molecular target: CT^C1, untagged C-terminal tail of FGFR2 (the last 58 residues) (UniProt P21802); test: MST
[6] = molecular target: FGFR2 juxtamembrane region (JM) (UniProt P21802); test: MST
JM-KD^Y657/658F = JM-KD^Y657/658F (UniProt P21802-3 414-764, Y657/658F)
[7] = molecular target: FGFR2 juxtamembrane region (JM) (UniProt P21802); test: MST; remark: listed apart in the source

## CT peptide 801-815
[1]
  Kd: 25.9 µM

## JM peptide 407-420
[1]
  fold weaker binding than peptide 414-430: 3 fold

## JM peptide 414-430
[1]
  Kd: 36.8 µM

## JM-KD^pY1 (from UniProt P21802-3 414-764) (domain or fragment)
JM-KD^pY1 [2]
  Kd: 3.07 µM
[3]
  Kd: 0.165 µM
JM-KD^pY1 [4]
  Kd: 3.46 µM
[5]
  Kd: 0.304 µM

## KD^pY1, mono-phosphorylated FGFR2 kinase domain (from UniProt P21802-3 465-764) (domain or fragment)
[1]
  Kd: 0.112 µM
[6]
  Kd: 2.51 µM
[5]
  Kd: 3.75 µM

B1: CT^C1, untagged C-terminal tail of FGFR2 (the last 58 residues) (domain or fragment)
chain: TTNEEYLDLSQPLEQYSPSYPDTRSSCSSGDDSVFSPDPMPYEPCLPQYPHINGSVKT
modifications: Atto488 dye in the MST assays where CT is the labelled partner
JM-KD^Y657/658F
  Kd: 5.65 ± 1.9 µM
[7]
  Kd: 20.2 µM

From article doi:10.1101/2020.10.01.322123 (bioRxiv, 2020)
